Conditions in all cases: both partners purified
In assay [1] the target is T1, c-Met peptide E-7 (523–537) (Homo sapiens (Human)., cysteine pairing not given here).
T1 construct: c-Met, human, amino acids 523-537; source: synthetic peptide (JPT Peptide Technologies), on cellulose membrane
T1 chain: FQSCSQCLSAPPFVQ-{cellulose support}
Briefly: peptide or protein array; overlapping 15-mer peptides of c-Met 1-932, 5 nmol/spot, bound by the C-terminus to cellulose; scFv in 5% skim milk at 4 °C overnight; bound scFv electroblotted to PVDF and detected with anti-HA-peroxidase.

The target in assay [2] is T2, c-Met peptide F-7 (527–541) (Homo sapiens (Human)., cysteine pairing not given here).
T2 construct: c-Met, human, amino acids 527-541; source: synthetic peptide (JPT Peptide Technologies), on cellulose membrane
T2 chain: SQCLSAPPFVQCGWC-{cellulose support}
Described as above.

Assay [3] has as its target T3, c-Met peptide G-7 (531–545) (Homo sapiens (Human)., cysteine pairing not given here).
T3 construct: c-Met, human, amino acids 531-545; source: synthetic peptide (JPT Peptide Technologies), on cellulose membrane
T3 chain: SAPPFVQCGWCHDKC-{cellulose support}
The assay is described as above.

The target of assay [4] is T4, human RON (recepteur d'origine nantais) ECD-Fc (Homo sapiens, UniProt Q04912).
T4 construct: RON receptor tyrosine kinase (macrophage-stimulating protein receptor), human, extracellular domain; The legend calls it ECD-Fc; the catalogue number's ending (H08H) may stand for a His-tagged product (surmise); also called human RON protein; source: bought: Sino Biological, 11608-H08H
Description: ELISA; 0.1 µg antigen coated per well at 4 °C overnight, blocked with 3% skim milk; dilutions of IRCR201 1 h at room temperature; goat anti-human IgG F(ab')2-HRP.

In assay [5] the target is T5, human c-Met extracellular domain (ECD)-fragment crystallizable region (Fc) (human, UniProt P08581).
T5 construct: hepatocyte growth factor receptor (c-Met), human, extracellular domain; c-Met is naturally cut into alpha and beta chains; also called human c-Met ECD-Fc; recombinant human whole c-Met ECD-Fc; source: bought: Sino Biological, 10692-H03H
Description: SPR; Biacore T100; human c-Met, mouse c-Met or BSA amine-coupled on a CM5 chip; different concentrations of purified IRCR201 injected. (In general: SPR reads the build-up and loss of mass on a sensor chip optically.)

The target of a further assay is T6, mouse c-Met ECD-Fc (Mus musculus, UniProt P16056).
T6 construct: hepatocyte growth factor receptor (c-Met), mouse, extracellular domain; source: bought: Sino Biological, 50622-M02H
The description is as above.

The next assay has as its target T7, bovine serum albumin (Bos taurus (Bovine)., UniProt P02769).
T7 construct: serum albumin, bovine; also called BSA
The description is as above.

The target of assay [6] is T5, human c-Met extracellular domain …. Description: ELISA; competitive: recombinant human c-Met coated; pre-bound with or without 2.5 µg/mL HGF 1 h at room temperature; then IRCR201 or huOA5D5.v2 1 h; antibody detected with anti-human IgG F(ab')2-HRP. In general terms: An ELISA detects its analyte on a solid surface through an enzyme-linked reagent.

No end group written: not given here. cellulose support = cellulose support (Whatman 50 cellulose membrane) to which the peptide C-terminus is covalently bound

B1: IRCR201 single-chain variable fragment (scFv) (scFv, V domains shown)
VH: EVQLLESGGGLVQPGGSLRLSCAASGFTFSNYAMSWVRQAPGKGLEWVSGISYSGGSTYYADSVKGRFTISRDNSKNTLYLQMNSLRAEDTAVYYCAKASRSCQRPACSYANGMDVWGQGTLVTVSS
VL: QSVLTQPPSASGTPGQRVTISCTGSSSNIGNNYVTWYQQLPGTAPKLLIYYNNHRPSGVPDRFSGSKSGTSASLAISGLQSEDEADYYCGSWDYSLSAYVFGGGTKLTVL
notes: VH and VL as in m1; Detected with anti-HA-peroxidase; also called scFv of IRCR201; IRCR201 scFv; source: E. coli TOP10F', purified from bacterial lysates (Ni-NTA agarose)
Regarding B1, the binding result in assay [1], in assay [2] and in assay [3] was “binds” each time.

B2: IRCR201 (antibody, V domains shown)
VH: EVQLLESGGGLVQPGGSLRLSCAASGFTFSNYAMSWVRQAPGKGLEWVSGISYSGGSTYYADSVKGRFTISRDNSKNTLYLQMNSLRAEDTAVYYCAKASRSCQRPACSYANGMDVWGQGTLVTVSS
VL: QSVLTQPPSASGTPGQRVTISCTGSSSNIGNNYVTWYQQLPGTAPKLLIYYNNHRPSGVPDRFSGSKSGTSASLAISGLQSEDEADYYCGSWDYSLSAYVFGGGTKLTVL
notes: CDR-H3 of 18 amino acids; IgG1; frameworks are not pointed to; also called IRCR201 IgG1; fully human bivalent anti-c-Met antibody; source: Expi293 transient mammalian expression system, purified (HiTrap Mabselect SuRe); copies: 2 + 2
For the molecule B2, the binding result (in assay [4]; with bovine serum albumin) was “no binding” in each case. Besides, the equilibrium dissociation constant (Kd) in assay [5] is 0.721 nM; with mouse c-Met ECD-Fc, 0.845 nM. In addition, the dissociation rate constant (koff) in assay [5] turned out to be 0.00304 s⁻¹; with mouse c-Met ECD-Fc, 0.00323 s⁻¹. Further, the values for the kon (in assay [5]; with mouse c-Met ECD-Fc) were 4.23e+06 M⁻¹ s⁻¹ and 3.83e+06 M⁻¹ s⁻¹, respectively.

B3: onartuzumab (huOA5D5.v2) (antibody, V domains shown)
VH: EVQLVESGGGLVQPGGSLRLSCAASGYTFTSYWLHWVRQAPGKGLEWVGMIDPSNSDTRFNPNFKDRFTISADTSKNTAYLQMNSLRAEDTAVYYCATYRSYVTPLDYWGQGTLVTVSS
VL: DIQMTQSPSSLSASVGDRVTITCKSSQSLLYTSSQKNYLAWYQQKPGKAPKLLIYWASTRESGVPSRFSGSGSGTDFTLTISSLQPEDFATYYCQQYYAYPWTFGQGTKVEIK
notes: second chain of the monovalent knob-into-hole format; Engineered monovalent (one-armed) antibody made with knob-into-hole technology; also called MetMab; source: Expi293 transient mammalian expression system, purified (HiTrap Mabselect SuRe); copies: 1 + 1 + 1
Regarding B3, the binding result in assay [6] is given as “binds”.

For orientation: Kd means the free concentration of one partner at which half of the binding sites on the other are occupied at equilibrium, for simple one-to-one binding. One may read the koff as the rate constant with which the complex falls apart. Low values mean a long-lived complex, high ones a short-lived complex. As usually defined, the kon is the second-order rate constant of association.

Source of the values: paper PMC5618617 (International Journal of Molecular Sciences, 2017).
